Assay: yeast display, Sf9 membrane polyspecificity reagent, FACS + sequencing; frameworks hold sequencing errors
Summary of the method: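 Nanobodies from a synthetic yeast display library (Saccharomyces cerevisiae BJ5465), induced 36–48 hours with galactose, were stained 1 hour at 4 °C with 10% biotinylated, detergent-solubilized Sf9 membrane reagent, enriched on streptavidin microbeads, then FACS-sorted. Anti-HA (expression) and streptavidin (reagent binding) fluorescence set low and high (top ~1%) gates. Polyreactivity labels come from the gate of origin. Genes were colony-PCR amplified, MiSeq 2 × 250 sequenced and filtered by CDR length.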
With “QVQLVESGGCLVQAGGSLRLSCAASGSIFTTYAMGWYRQAPGKERELVAAISVSGSSTYYADSVKGRFTISRDNAKNTVYLQMNSLKPEDTAVYYCNKAFRSVRPRRRYDYWGQGTQVTVSS” the “polyreactivity (PSR sort gate)” value was “low polyreactivity”. With “QVQLVESGGGLVQAGGSLRLTCAASGRILTCYAMGWYRQEPGKERELVASINWRGGSTYYADSVKGRFTISRDNAKNTVYLQMNSLKPEDTAGYYCARYKYTRQTRVEYGYWGQGTQVTVSS” the “polyreactivity (PSR sort gate)” value was “high polyreactivity”. For “QVQLVESGGGLVQAGGSLRLSCAASGYTFQHYAMGWYRQAPGKERELVAAITRRGSGTYYADSVKGRFTSSRDNAKNTVYLQMNSLKPEDTAVYYCAAAVGHGVDYWGQGTQVTVSS”, the “polyreactivity (PSR sort gate)” value was “high polyreactivity”. For “QGQLEDSGGGLVQAGGSLRLSCAASGLTYDHNAMGWYRNATGKEREFFAVISWRGTSTYYADSVKGRFTISRDNAKNTVFLQMHSLKPEDTAVYYCATRYYGDDVYRYDHWGQGTQVTVSS”, the “polyreactivity (PSR sort gate)” value was “high polyreactivity”. For “QVQLVESGGGLVQAGGTLRLSCAASGLTFRYYAMGWYRQAPGKERELVAAITRRGSTYYADSVKGRFTISRDNAKNTVYFQMNSLKPEDTAVYYCATVTGFHSSPLRDLDYWGQGTQVTVSS”, the “polyreactivity (PSR sort gate)” value was “high polyreactivity”. With “QVQLVESGGGLVQAGGSLRISCAASGIIFRGNAMGWYRQAPGKERELVAAISSGGGTYYADSVKGRLTISRDNAKNTVYLQMNSLKPEDTAVYYCNRVRYYQYGYDYWGQGTEVTVSS” the “polyreactivity (PSR sort gate)” value was “high polyreactivity”. For “QVQLVESGGGLVQAGGSLRLSCAASGSIFAWYAMGWYRQAPGKERELVATITWSGGSTYYADSVKGRFTISRDNAKNTVYLQMNSLKPEDTAVYYCAAEVVGIWYDLWYQGDYWGQGTQVTVSS”, the “polyreactivity (PSR sort gate)” value was “low polyreactivity”. In the case of “QVQLVESGGGLVQAGGSLRVSCAASGRIFKSNAMGWYRPAPGKERELVASSTASGGRTYYADSVKGRFTISRDNAKNTVYLQMNSLKPEDTAVYYCAAGRPFSKYGYWGQGTQVTVTS”, the “polyreactivity (PSR sort gate)” value is reported as “high polyreactivity”. In the case of “QVQLVESGGGLVQAGGSLRLSCAASGRTFKINAMGWYRQAPGKERELVATITGRGASTYYADSVKGRFTISRDNAKNTVYLQMNSLKPEDTAVYYCAARTEVPTRYNYWGQGTQVTVSS”, the “polyreactivity (PSR sort gate)” value is reported as “high polyreactivity”. For “QFQLVESGGGLDQAGGSLRLSCAASGRTFHAYAMGSYRQAHGKGRELVAAITRTGTTHYADSVKGRFTISRDNAKNTVFLQMNSLKPEDTAVYYCAAQHVRVAAQFVLQGYDYWGQGTQVTVSS”, the “polyreactivity (PSR sort gate)” value was “low polyreactivity”. In the case of “QVQLVESGGGLVQAGGSLRLSCAASGNIFSYYAMGLYRPAPGKERELVAAIDWNGGTTYYADSVKGRFTISRDNAKNTVYLQMNSLKPEDTAVYYCAAAWYWYWFLFEGAPYDYWGQGTQVTVSS”, the “polyreactivity (PSR sort gate)” value is reported as “high polyreactivity”. With “QVQLVESGGGLVQAGGSLRLSCAASGRIFGVNAMGRYRQAPGKERELVADISSGGSTYYADSVKGRFTISRDNAKNTVYLQMNSLNPEDTAVYSCAVDKYVFVSYSFYFEYDYWGQGTQVTVSS” the “polyreactivity (PSR sort gate)” value was “low polyreactivity”. For “QVQLVESGGGLVQAGGSLRLSCAASRRIFASNAMGWNSQAPGKERELVAAITSSGGSTYYADSVKGRFTISLDNAKNTVYLQMNSLKPEDTAVYYCNAGDYYYRLVTAKPSSYDYWGQGTQVTVSS”, the “polyreactivity (PSR sort gate)” value was “high polyreactivity”. In the case of “QVQLVESGGGLVQAGGSLRLSCAASGSIFYQNAMGWYRHAPGKERELVAAITSDGSTYYADSVKGRFTISRDNAKKTVYLQMNSLKPEDTAVYYCAAEDYGHRYDYWGQGTQVTVSS”, the “polyreactivity (PSR sort gate)” value is reported as “low polyreactivity”. In the case of “QVQLVESGGGLVQAGGSLRLSCAASTYLRLLMLWDGIDLRLGKKGSWLTLLTLVVNSTYYADSVKGRFTISRDNAKNTVFLQMNSLKPEDTAVYYCNVDPYGTYARTHLEYWGQGTQVTVSS”, the “polyreactivity (PSR sort gate)” value is reported as “low polyreactivity”. With “QVQLVESGGGLVQAGGSLRLSFAASGSTFSSNAMGWYRQAPGKERELVAAISVNGGSTNYADSVKGRFTISRDNAKNTVYLQMNSLKPEDTAVYYCDAEPDKVAFYRGDYWGQGTQVTVSS” the “polyreactivity (PSR sort gate)” value was “low polyreactivity”. With “QVHLVESGGGLVQAGGSLRLSCAASGSIFYVYAMVWYRQAPGKERELVAAITWSGGSTYYADSVKGRFTISRDNAKNTVYLQMNSLNPEDTAVYYCAADEGYDYPYYYWGQGTQVSVSS” the “polyreactivity (PSR sort gate)” value was “high polyreactivity”. For “QVQLVESGGGLVQAGGSLRLSCAASGSTFQSYAMGWYRQAPGKERELVAAISARGGTTYYADSVKGRFTISRDNAKNTVYLQMNSLKPEDTAVYYCAVDRAFRAQNYHEYDYWGQGTQVTVSS”, the “polyreactivity (PSR sort gate)” value was “low polyreactivity”. In the case of “QVQLVESGGGLVQAGGSLRLSCAASGFTFYLNAMGWYRQAPGKERELVAAITRRGTSTYYADSVKGRFTISRDNAKNTVYLQMNSLKPEDTAVYYCAARPLDYWGQGTQVTVSS”, the “polyreactivity (PSR sort gate)” value is reported as “high polyreactivity”. For “QVQLVESGGGLVQAGGSLRLSCAASGRTFISYAMGWYRQAPGKERELVAAISGRGGSTYFADSVKGRFTISRDNAKNTVYLQMNSLKQEDTAVYYCAAEWFGVYRRYKYDYWGQGTQVTVSS”, the “polyreactivity (PSR sort gate)” value was “low polyreactivity”. In the case of “QVQLVESGGGLVQAGGSLRLSCAASGSTFAIYAMGWYRQAPGKERELVAAISKSGGSTYYADSVKGRFTISRDNAKNTVYLQMNILKPEDTAVYYCARRQYAFGPYGFYYWGQGTQVTVSS”, the “polyreactivity (PSR sort gate)” value is reported as “high polyreactivity”. For “QVQLVESGGGLVQAGGSLRLSCAASGSTFTWYAMGWYRQAPGKERELVADISYGGGSTYYADSVKGRFTISRDNAKNTVYLQMNSLKPEDTAVYYCAAESIPYYSYDYWGQGTQVTVSS”, the “polyreactivity (PSR sort gate)” value was “low polyreactivity”. In the case of “QVQLVESGRGLVQAGGSLPLSCAASGFIFRRYAMVWYRQAPGKERELVAGISRGGDSTYYADSVKGRFTISRDNAKNTVYLQMNSLKPEDTAVYFCAGQGRDSTPHGYWGQGTQVTVSS”, the “polyreactivity (PSR sort gate)” value is reported as “high polyreactivity”. For “YYADSVKGLFTISRDNAKNTVYLQMNSLNPEDTAVYYCNAGYYISFNPYDYWGQGTQVTVSS”, the “polyreactivity (PSR sort gate)” value was “low polyreactivity”. With “QVQLVESGGGLVQAGGSLRLSCAASGRTFRRNAMGWYRQAPGKERELVATISSSGGRTYYADSVKGRFTISRDNAKKTVYFQMNSLKPEDTAVYYCNKALRTYPLFYYWGQGTQVTVSS” the “polyreactivity (PSR sort gate)” value was “high polyreactivity”. In the case of “QVQLVESGGGLVQAGGSLRLSCAASGMFGLNAMGWYRQAPGKERELVAAIRWTGSSTYYADSVKGRFTISRDNAKNTVYLQMNSLKPEDTADYYCAADFYVWGIWMEYWGQGTQVTVSS”, the “polyreactivity (PSR sort gate)” value is reported as “high polyreactivity”. With “QVQLVESGGGLVQAGGSLRLSCAASGSTYQNAMGWYRQAPGKEREFVAAISWSGGSTYYADSVKGRFTISRDNAKNTVYLQMNSLKPEDTAVYYCAAYSYFSPRYDYWGQGTQVTVSS” the “polyreactivity (PSR sort gate)” value was “high polyreactivity”. With “QVQLVESGGGLVQAGGSLRLSCAASVITYFVYAMGWYRQAPGKERELVAAITSGDSTSYADSVKGRFTISRDNAKNTVYLQMNSLKPEDTAVYYCAAEQVTIEDGVYFDFNSWGQGTQVTVSS” the “polyreactivity (PSR sort gate)” value was “low polyreactivity”. With “QVQLVESGGGLVQAGGSLRLSCAASGSTFTRNAMGLYRQAPGKERELVAAITSGGSTNYADSVKGRFTISRDNAKNTVYLQMNSLKPEDTAVYYCNAESPLSYTRHDSWGQGTQVTVSS” the “polyreactivity (PSR sort gate)” value was “low polyreactivity”. With “QVQLEESGGGLVLAGGSLRLSCAAAGSTFVTNDMGWYRQAPGKERELGAAISVGGRTSYADSVKGRFTISRDNAKNTVYLQMNSLKPEESAVDYCAAQYSYTYWGQGTQVTVSS” the “polyreactivity (PSR sort gate)” value was “low polyreactivity”.
